Where a chain is given by its changes, count along the chain named. Numbers in names are those of the source.
B1: 29-mer ubz peptide of CaPolη (607-635) (peptide)
peptide: KTKKCSRCKLSVDDPVEHNDYHIAMDLSN
notes: also called wild-type ubz peptide; WT UBZ peptide; source: synthetic peptide (China peptides Co Ltd, 98% purity)
B2: ScPCNA (natural protein, Saccharomyces cerevisiae, UniProt P15873 1-258, looked up)
chain: MLEAKFEEASLFKRIIDGFKDCVQLVNFQCKEDGIIAQAVDDSRVLLVSLEIGVEAFQEYRCDHPVTLGMDLTSLSKILRCGNNTDTLTLIADNTPDSIILLFEDTKKDRIAEYSLKLMDIDADFLKIEELQYDSTLSLPSSEFSKIVRDLSQLSDSINIMITKETIKFVADGDIGSGSVIIKPFVDMEHPETSIKLEMDQPVDLTFGAKYLLDIIKGSSLSDRVGIRLSSEAPALFQFDLKSGFLQFFLAPKFNDEE
notes: proliferating cell nuclear antigen (PCNA), Saccharomyces cerevisiae; also called S. cerevisiae PCNA; source: E. coli BL21-DE3, purified
B3: CaPCNA (natural protein, Candida albicans, UniProt Q5AMN0 1-259, looked up)
chain: MLEGKFEEAALLKKVVEAIKDCVKKCNFNCSEHGITVQAVDDSRVLLVSLLIGQTSFSEYRCDRDVTLGIDLESFSKIIKSANNEDFLTLLAEDSPDQIMAILEEKQKEKISEYSLKLMDIDSEFLQIDDMEYDAVVNMPSSDFAKLVRDLKNLSESLRVVVTKDSVKFTSEGDSGSGSVILKPYTNLKNERESVTISLDDPVDLTFGLKYLNDIVKAATLSDVITIKLADKTPALFEFKMQSGGYLRFYLAPKFDDDE
notes: proliferating cell nuclear antigen (PCNA), Candida albicans; also called C. albicans PCNA; source: E. coli BL21-DE3, purified
B4: CaPCNA-90 (P253A, K254A) (natural protein)
chain: B3 chain with P253A, K254A
notes: source: E. coli BL21-DE3, purified
B5: ScPolη: Saccharomyces cerevisiae DNA polymerase eta (protein)
chain: MSKFTWKELIQLGSPSKAYESSLACIAHIDMNAFFAQVEQMRCGLSKEDPVVCVQWNSIIAVSYAARKYGISRMDTIQEALKKCSNLIPIHTAVFKKGEDFWQYHDGCGSWVQDPAKQISVEDHKVSLEPYRRESRKALKIFKSACDLVERASIDEVFLDLGRICFNMLMFDNEYELTGDLKLKDALSNIREAFIGGNYDINSHLPLIPEKIKSLKFEGDVFNPEGRDLITDWDDVILALGSQVCKGIRDSIKDILGYTTSCGLSSTKNVCKLASNYKKPDAQTIVKNDCLLDFLDCGKFEITSFWTLGGVLGKELIDVLDLPHENSIKHIRETWPDNAGQLKEFLDAKVKQSDYDRSTSNIDPLKTADLAEKLFKLSRGRYGLPLSSRPVVKSMMSNKNLRGKSCNSIVDCISWLEVFCAELTSRIQDLEQEYNKIVIPRTVSISLKTKSYEVYRKSGPVAYKGINFQSHELLKVGIKFVTDLDIKGKNKSYYPLTKLSMTITNFDIIDLQKTVVDMFGNQVHTFKSSAGKEDEEKTTSSKADEKTPKLECCKYQVTFTDQKALQEHADYHLALKLSEGLNGAEESSKNLSFGEKRLLFSRKRPNSQHTATPQKKQVTSSKNILSFFTRKK
modifications: left off: GST, N-terminal, state not stated
notes: Saccharomyces cerevisiae DNA polymerase eta

Legend:
CaPCNA [1] = assay: ITC binding to CaPCNA; design: species or system Candida albicans; settings: 25 °C, pH 7.4, CaPCNA injected, about 10 μM Polη mutant in cell, negatives repeated at various concentrations
From the text: To identify a region of CaPolη involved in PCNA interaction, we generated a deletion construct by inserting a stop codon at amino acid position 513 (K513) of CaPolη. […] The wild-type and truncated CaPolη were purified, and their interaction with CaPCNA was monitored by isothermal calorimetry (ITC) analysis. […] Since CaPolη functionally complements ScPolη and protects the fungal cells from UV-induced DNA damages ([17], [25], [26]), to further strengthen our finding, various Polη orfs were expressed under the constitutive ADH1 promoter in rad30Δ and rad30Δrev3Δ S. cerevisiae strains, and susceptibility to UV irradiation was determined.
To map the precise location of PCNA binding, another deletant CaPolη 1 to 601 aa was constructed that lacks the last 39 residues encompassing the ubz domain but retains Seq-3 and Seq-4 (Fig. 2A). […] To ascertain the function of ubz domain, two D626A and H624A, H628A of CaPolη mutants were generated and their ability to suppress UV sensitivity of Polη-deficient S. cerevisiae strains was examined. […] Similarly, UV-induced mutation rate was estimated by counting the number of canavanine-resistant colonies of various S. cerevisiae strains harboring CaPolη constructs. […] Subsequently, ITC and GST-pull-down assays were carried out to determine the role of ubz in PCNA binding.

ScPCNA [2] = target: B2; assay: ITC; PCNA (200 μM, counted as a trimer) in the syringe, Polη (10 μM) or ubz peptide (20 μM) in the cell; 25 injections of 1.5 μl; 25 °C; 20 mM HEPES pH 7.4, 150 mM NaCl; single-site binding model; settings: both partners purified
CaPCNA [3] = target: B3; assay: as above; settings: both partners purified
CaPCNA-90 (P253A, K254A) = target: B4; assay: as above; settings: both partners purified
ScPolη = target: T1, ScPolη (Saccharomyces cerevisiae, UniProt Q04049 1-632); assay: as above; settings: both partners purified
T1 construct: DNA polymerase eta (Rad30), Saccharomyces cerevisiae, 632 aa, wild type; also called ScRad30; S. cerevisiae DNA polymerase eta; source: purified
T1 sequence (looked up): B5 chain

[4] = target: B1; assay: as above; settings: both partners purified
[5] = target: the molecule itself; assay: SEC; about 10 μg of purified CaPCNA and CaPolη (1:1 M ratio) incubated 60 min at room temperature, or CaPCNA alone; Superdex 200 PC3.2/30; 50 mM HEPES pH 7.5, 150 mM NaCl, 10% glycerol; 0.05 ml/min, 4 °C
[6] = target: wild-type CaPolη protein (1–640 aa) (Candida albicans); assay: ITC; PCNA (200 μM, counted as a trimer) in the syringe, Polη (10 μM) or ubz peptide (20 μM) in the cell; 25 injections of 1.5 μl; 25 °C; 20 mM HEPES pH 7.4, 150 mM NaCl; single-site binding model
ScPCNA [7] = target: T2, ScPCNA (Saccharomyces cerevisiae, UniProt P15873); assay: ITC binding to ScPCNA; settings: 25 °C
T2 construct: made in house; host or cells: E. coli BL21-DE3
T2 sequence (P15873 1-258): B2 chain
From the text: To understand whether any sequence or structural differences of the ubz domains in these Polηs have an impact on functional differences, we used the solution structure of the ubz domain of human Polη as a template and determined the structure of the ubz domain of both Sc- and Ca-Polηs by computational modeling (Fig. 3A). […] The two cysteines are located on the fingertip made by the two β-strands, and the two histidines are located on the α-helix. […] Next we examined whether the ubz peptide can inhibit the binding of PCNA to Polη. An equimolar mixture of the ubz peptide and PCNA was injected into the calorimetric cell having CaPolη to examine the interference of peptide on the interaction between PCNA and Polη by ITC.
All the purified proteins and purchased peptides were dialyzed overnight against 1 l of a buffer containing 20 mM HEPES (pH 7.4) and 150 mM NaCl at 4 °C to ensure complete removal of DTT and glycerol from the protein storage buffer, which could affect the heat exchange while they interact. ITC assays were performed using a Malvern MicroCal PEAQ-ITC calorimeter. Before the experiment, the cell and the syringe were thoroughly washed with water, followed by cell rinsing with a buffer. A control run was carried out to make sure that the buffer is not participating in heat change where the cell was filled with 300 μl of a buffer and concentrated CaPCNA or ScPCNA protein (200 μM) in the syringe. ITC was performed using various Polηs or UBZ peptide or UBZ mutant peptide in the sample cell and CaPCNA or ScPCNA or a mixture of CaPCNA+ WT UBZ peptide in the syringe. Twenty-five injections of 1.5 μl of protein from the syringe were given at intervals of 120 s with an initial delay of 120 s at 25 °C. The data were analyzed to determine the various kinetic parameters using a single-site binding model provided in the ITC analysis software package.

607-KTKKCSRCKLSVDDPVEANDYAIAMDLSN-635 [mutant peptide]
Binding to CaPCNA by ITC (in words) (CaPCNA [1]): did not show any sign of binding

B1
Kd (ScPCNA [2]): 15.6 µM
Kd (CaPCNA [3]): 19.8 µM
Kd (CaPCNA-90 (P253A, K254A)): 39 µM

B2
Kd (ScPolη): 15.1 µM
dH (ScPolη): -334 kJ/mol
stoichiometry N (ScPolη): 0.31
dH [4]: -101 kJ/mol
stoichiometry N [4]: 0.34

B3
dH [4]: -335 kJ/mol
stoichiometry N [4]: 0.355
stoichiometry N [5]: 3
Kd [6]: 7.15 µM
dH [6]: -92.5 kJ/mol
stoichiometry N [6]: 0.315

B4
dH [4]: -334 kJ/mol
stoichiometry N [4]: 0.316

B5
Kd (ScPCNA [7]; 20 mM HEPES pH 7.4, 150 mM NaCl, syringe ScPCNA 200 μM, cell 10 μM ScPolη or 20 μM ubz peptide, single-site model, repeated twice): 15.1 µM
Stoichiometry (ScPCNA [7]; pH 7.4, ScPCNA 200 μM in syringe): 0.31
ΔG (ScPCNA [7]; pH 7.4, ScPCNA, unit not given): −6.58
ΔH (ScPCNA [7]; pH 7.4, ScPCNA, unit not given): −79.9
−TΔS (ScPCNA [7]; pH 7.4, ScPCNA, unit not given): 73.3
